Experimental data taken from publication PMC8155012, “Architecture of the Sema3A/PlexinA4/Neuropilin tripartite complex” (Nature Communications, 2021).
Changes are numbered by the printed parent chain. Names may count otherwise.

T1: FLAG-tagged PlexinA4 extracellular region K343E (mouse, UniProt Q80UG2 33-1226, K343E)
T1 construct: mouse PlexinA4 residues 33–1226, extracellular region, K343E; also called PlexinA4-K343E; source: Expi293F, purified from medium (Ni-NTA, Superose 6); not shown: FLAG, N-terminal, kept
T1 sequence (looked up): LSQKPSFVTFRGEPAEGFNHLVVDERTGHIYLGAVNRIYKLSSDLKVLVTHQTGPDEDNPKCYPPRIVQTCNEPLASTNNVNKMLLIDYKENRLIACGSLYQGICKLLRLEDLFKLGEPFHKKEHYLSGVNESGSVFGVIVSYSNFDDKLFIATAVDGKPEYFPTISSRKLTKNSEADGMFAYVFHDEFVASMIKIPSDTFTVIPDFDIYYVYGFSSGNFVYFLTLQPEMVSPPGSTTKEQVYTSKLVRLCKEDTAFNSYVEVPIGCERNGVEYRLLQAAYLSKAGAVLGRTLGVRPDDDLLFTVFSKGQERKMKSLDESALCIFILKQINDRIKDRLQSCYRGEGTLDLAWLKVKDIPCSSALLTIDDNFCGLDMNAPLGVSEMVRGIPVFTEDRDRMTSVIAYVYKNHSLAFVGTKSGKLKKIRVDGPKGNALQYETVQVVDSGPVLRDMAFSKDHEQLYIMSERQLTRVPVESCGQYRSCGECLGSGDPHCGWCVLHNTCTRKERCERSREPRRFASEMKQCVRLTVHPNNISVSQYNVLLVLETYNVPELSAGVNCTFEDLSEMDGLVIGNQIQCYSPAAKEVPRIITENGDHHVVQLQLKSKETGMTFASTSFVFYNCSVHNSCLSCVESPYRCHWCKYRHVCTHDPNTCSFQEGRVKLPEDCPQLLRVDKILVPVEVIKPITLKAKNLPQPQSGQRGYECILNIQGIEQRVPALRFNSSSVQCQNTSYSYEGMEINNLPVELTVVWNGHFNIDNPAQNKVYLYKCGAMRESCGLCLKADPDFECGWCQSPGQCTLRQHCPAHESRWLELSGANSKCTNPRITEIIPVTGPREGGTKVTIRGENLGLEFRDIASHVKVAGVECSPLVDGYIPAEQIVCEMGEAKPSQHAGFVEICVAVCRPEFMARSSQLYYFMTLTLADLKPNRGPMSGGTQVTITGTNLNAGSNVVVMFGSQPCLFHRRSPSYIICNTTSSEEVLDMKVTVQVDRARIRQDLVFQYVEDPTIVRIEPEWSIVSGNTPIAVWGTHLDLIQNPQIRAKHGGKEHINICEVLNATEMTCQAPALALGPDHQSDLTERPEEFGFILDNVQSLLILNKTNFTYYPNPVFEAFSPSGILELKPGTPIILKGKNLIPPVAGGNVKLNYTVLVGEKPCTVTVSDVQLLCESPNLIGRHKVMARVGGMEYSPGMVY

T2: FLAG-tagged PlexinA4 extracellular region (mouse, UniProt Q80UG2 33-1226)
T2 construct: mouse PlexinA4 residues 33–1226, extracellular region; FLAG inserted immediately after the signal peptide; also called PlexinA4-WT; source: Expi293F, purified from medium (Ni-NTA, Superose 6); not shown: FLAG, N-terminal, kept
T2 sequence (looked up): T1 sequence (looked up) with E311K

B1: Nrp1-a1a2b1b2 (receptor, mouse, UniProt P97333 22-588, looked up)
chain: FRSDKCGGTIKIENPGYLTSPGYPHSYHPSEKCEWLIQAPEPYQRIMINFNPHFDLEDRDCKYDYVEVIDGENEGGRLWGKFCGKIAPSPVVSSGPFLFIKFVSDYETHGAGFSIRYEIFKRGPECSQNYTAPTGVIKSPGFPEKYPNSLECTYIIFAPKMSEIILEFESFDLEQDSNPPGGMFCRYDRLEIWDGFPEVGPHIGRYCGQKTPGRIRSSSGVLSMVFYTDSAIAKEGFSANYSVLQSSISEDFKCMEALGMESGEIHSDQITASSQYGTNWSVERSRLNYPENGWTPGEDSYKEWIQVDLGLLRFVTAVGTQGAISKETKKKYYVKTYRVDISSNGEDWISLKEGNKAIIFQGNTNPTDVVLGVFSKPLITRFVRIKPVSWETGISMRFEVYGCKITDYPCSGMLGMVSGLISDSQITASNQADRNWMPENIRLVTSRTGWALPPSPHPYTNEWLQVDLGDEKIVRGVIIQGGKHRENKVFMRKFKIAYSNNGSDWKTIMDDSKRKAKSFEGNNNYDTPELRTFSPLSTRFIRIYPERATHSGLGLRMELLGCEVEAP
notes: mouse Neuropilin 1 residues 22–588, domains a1, a2, b1 and b2; also called MAM-domain truncated version of Nrp1; Nrp1-WT; source: Expi293F, transfected alone or co-expressed with Sema3A and PlexinA4, purified from medium (Ni-NTA, Superose 6)
B2: Nrp1-a1a2b1b2 E128R (receptor, mouse, UniProt P97333 22-588, looked up)
chain: B1 chain with E107R
notes: mouse Neuropilin 1 residues 22–588 (a1a2b1b2) with E128R; also called Nrp1-E128R; source: Expi293F, purified from medium (Ni-NTA, Superose 6)
B3: Nrp1-a1a2b1b2 H74A (receptor, mouse, UniProt P97333 22-588, looked up)
chain: B1 chain with H53A
notes: mouse Neuropilin 1 residues 22–588 (a1a2b1b2) with H74A; also called H74A mutation of Nrp1; source: Expi293F, purified from medium (Ni-NTA, Superose 6)
B4: Nrp1-a1a2b1b2 S251E (receptor, mouse, UniProt P97333 22-588, looked up)
chain: B1 chain with S230E
notes: mouse Neuropilin 1 residues 22–588 (a1a2b1b2) with S251E; also called Nrp1-S251E; source: Expi293F, purified from medium (Ni-NTA, Superose 6)
B5: Nrp1-a1a2b1b2 A252E (receptor, mouse, UniProt P97333 22-588, looked up)
chain: B1 chain with A231E
notes: mouse Neuropilin 1 residues 22–588 (a1a2b1b2) with A252E; also called Nrp1-A252E; A252E mutant; source: Expi293F, purified from medium (Ni-NTA, Superose 6)
B6: Sema3A (21–770) (ligand, mouse, UniProt O08665 21-770, looked up)
chain: NYANGKNNVPRLKLSYKEMLESNNVITFNGLANSSSYHTFLLDEERSRLYVGAKDHIFSFNLVNIKDFQKIVWPVSYTRRDECKWAGKDILKECANFIKVLEAYNQTHLYACGTGAFHPICTYIEVGHHPEDNIFKLQDSHFENGRGKSPYDPKLLTASLLIDGELYSGTAADFMGRDFAIFRTLGHHHPIRTEQHDSRWLNDPRFISAHLIPESDNPEDDKVYFFFRENAIDGEHSGKATHARIGQICKNDFGGHRSLVNKWTTFLKARLICSVPGPNGIDTHFDELQDVFLMNSKDPKNPIVYGVFTTSSNIFKGSAVCMYSMSDVRRVFLGPYAHRDGPNYQWVPYQGRVPYPRPGTCPSKTFGGFDSTKDLPDDVITFARSHPAMYNPVFPINNRPIMIKTDVNYQFTQIVVDRVDAEDGQYDVMFIGTDVGTVLKVVSVPKETWHDLEEILLEEMTVFREPTTISAMELSTKQQQLYIGSTAGVAQLPLHRCDIYGKACAECCLARDPYCAWDGSSCSRYFPTAKARTRAQDIRNGDPLTHCSDLQHHDNHHGPSLEERIIYGVENSSTFLECSPKSQRALVYWQFQRRNEDRKEEIRMGDHIIRTEQGLLLRSLQKKDSGNYLCHAVEHGFMQTLLKVTLEVIDTEHLEELLHKDDDGDGSKIKEMSSSMTPSQKVWYRDFMQLINHPNLNTMDEFCEQVWKRDAAQAAQRPGHSQGSSNKWKHMQESKKGANRATHEFERAPR
notes: mouse Sema3A residues 21–770, ending at Arg770; internal furin sites mutated; without the A106K mutation; PDB 7M0R holds the A106K form; also called Sema3A-WT; wild-type Sema3A; source: Expi293F, purified from medium (Ni-NTA, Superose 6)
B7: Sema3A (21–770) K497E (ligand, mouse, UniProt O08665 21-770, looked up)
chain: B6 chain with K477E
notes: mouse Sema3A residues 21–770 with K497E; internal furin sites mutated; without A106K; also called Sema3A-K497E; Seme3A-K497E; source: Expi293F, purified from medium (Ni-NTA, Superose 6)
B8: Sema3A (21–770) F386A (ligand, mouse, UniProt O08665 21-770, looked up)
chain: B6 chain with F366A
notes: mouse Sema3A residues 21–770 with F386A; internal furin sites mutated; without A106K; also called F386A mutation of Sema3A; source: Expi293F, purified from medium (Ni-NTA, Superose 6)

Tests used:
[1] = target: T1, FLAG-tagged PlexinA4 extracellular …; assay: pull-down; FLAG-tagged PlexinA4 (20 µg) on anti-FLAG antibody resin; Nrp1 and Sema3A, 30 µg each, added together; 20 mM HEPES (pH 7.5), 150 mM NaCl, 1 mM CaCl2, 4 °C, 1 h; SDS-PAGE, Coomassie blue; conditions: both partners purified
[2] = target: T2, FLAG-tagged PlexinA4 extracellular …; assay: as above; conditions: both partners purified

Binder	binding result [1]	binding result [2]
B1	binds	binds
B2		binds
B3		binds
B4		binds
B5		binds
B6	binds	binds
B7		binds
B8		binds
